These are literature values, as cited in PMC9213791.

In general, pKd refers to the negative decadic logarithm of the Kd, by convention in mol/L.

The data set addresses cardiac troponin C N-terminal domain (cNTnC) N-terminal domain (Homo sapiens) (UniProt P63316).

pKd: −log10 of the molar value.

Sequence of cardiac troponin C N-terminal domain (cNTnC) N-terminal domain (Homo sapiens) (P63316 1-89): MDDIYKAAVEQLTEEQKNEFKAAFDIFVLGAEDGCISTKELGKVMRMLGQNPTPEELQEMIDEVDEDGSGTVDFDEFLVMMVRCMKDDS

Regarding “cardiac troponin I switch peptide switch peptide (from UniProt P19429)”, the negative logarithm of the Kd (pKd) was 3.81.
